# T1: EcmrR (UniProt PDB:6XLK_3 1-268)
# T1 sequence: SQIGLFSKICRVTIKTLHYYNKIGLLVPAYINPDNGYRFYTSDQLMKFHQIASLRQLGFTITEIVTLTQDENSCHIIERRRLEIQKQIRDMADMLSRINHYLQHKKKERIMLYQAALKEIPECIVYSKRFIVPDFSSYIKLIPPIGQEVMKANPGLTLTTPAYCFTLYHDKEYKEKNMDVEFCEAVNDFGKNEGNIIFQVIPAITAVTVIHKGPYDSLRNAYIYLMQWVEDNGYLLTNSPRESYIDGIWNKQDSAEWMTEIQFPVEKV
# Columns and labels:
# EcmrR CTD = biological target: T2, EcmrR CTD (Escherichia coli, UniProt A0A8I3B051); test: X-ray crystal structure, […] Å; type: binding; details: sites I and II both occupied; detergent of the crystallisation solution, 5 mM
# T2 construct: E. coli BL21 Star (DE3)
# [1] = biological target: EcmrR (multidrug-sensing MerR family transcriptional regulator of Escherichia coli), full length, wild type (Escherichia coli); test: cryo-EM structure
# EcmrR (full length) = biological target: T3, EcmrR (full length) (Escherichia coli, UniProt A0A8I3B051); type: binding; details: second site (site II) in CTD; TPSb+ in site I; 8 mM CHAPSO added before grid preparation; density of the sterol head, relevance of the site left open by the authors
# T3 construct: E. coli BL21 Star (DE3); codon-optimised gene; homodimer on promoter DNA with E. coli RNAP-sigma70
# EcmrR [2] = biological target: T1, EcmrR; test: cryo-EM (focused map of spacer DNA subcomplex within RPo); TPSb+, CHAPSO; RNAP present in the particle; Complex assembly: core RNAP:σ70:EcmrR-promoter 1:1.4:2, 5 mM MgCl2, 5 mM TPSb+ Br-, 23 °C 3 h, then (initial transcribing complexes) rNTPs 37 °C 10 min; SEC purified; DNA in 20 mM Tris-HCl pH 7.5, 100 mM KCl, 1 mM TCEP; final SEC buffer not given; details: protein: recombinant; tags: expressed as N-terminal His6-Smt3 fusion; chain copies: 2; pre-melted bubble from non-complementary strand segments, blunt ends
# EcmrR [3] = biological target: T1, EcmrR; test: cryo-EM (focused map of spacer DNA subcomplex within RPitc-4nt); TPSb+, CHAPSO; RNAP present in the particle; Complex assembly: core RNAP:σ70:EcmrR-promoter 1:1.4:2, 5 mM MgCl2, 5 mM TPSb+ Br-, 23 °C 3 h, then (initial transcribing complexes) rNTPs 37 °C 10 min; SEC purified; DNA in 20 mM Tris-HCl pH 7.5, 100 mM KCl, 1 mM TCEP; final SEC buffer not given; details: protein: recombinant; tags: expressed as N-terminal His6-Smt3 fusion; chain copies: 2; blunt
molecule,measurement,setting,value
CCCCCCCCCCCCCCCC[N+](C)(C)C [CTA^+],"X-ray crystal structure, 1.4 Å",EcmrR CTD,wherein both sites are occupied by cetyltrimethylammonium cation (CTA^+)
"EcmrR (multidrug-sensing MerR family transcriptional regulator of Escherichia coli), full length, wild type (natural protein)",stoichiometry N,[1],2
"C[C@H](CCC(=O)NCCC[N+](C)(C)CC(O)CS(=O)(=O)[O-])[C@H]1CC[C@H]2[C@@H]3[C@H](O)C[C@@H]4C[C@H](O)CC[C@]4(C)[C@H]3C[C@H](O)[C@]12C (some centres unmarked) [CHAPSO, 3-([3-cholamidopropyl]dimethylammonio)-2-hydroxy-1-propanesulfonate]",cryo-EM structure of the complex,EcmrR (full length),The density likely corresponds to the tetracyclic sterol head of CHAPSO
"54-bp heteroduplex promoter scaffold, 19-bp spacer (NT strand DNA-1 / T strand DNA-1) (dsDNA) DNA 1: GCCTTGACCCTCCCCTAAGGGGAGGGTTTAGATTGTGTGCAGTCTGACGCGGCG DNA 2: CGCCGCGTCAGACTCGTAGGAATCTAAACCCTCCCCTTAGGGGAGGGTCAAGGC",binding result,EcmrR [2],binds
"54-bp fully complementary promoter scaffold, 19-bp spacer (NT strand DNA-1 / T strand DNA-2) (dsDNA) DNA 1: GCCTTGACCCTCCCCTAAGGGGAGGGTTTAGATTGTGTGCAGTCTGACGCGGCG DNA 2: CGCCGCGTCAGACTGCACACAATCTAAACCCTCCCCTTAGGGGAGGGTCAAGGC",binding result,EcmrR [3],binds

# Reference: PMC8113463, “Structural visualization of transcription activated by a multidrug-sensing MerR family regulator” (Nature Communications, 2021)
